According to the RNAGym collection of RNA variant scans (doi:10.7554/elife.90254):

B1: LINE1-full (parent)
chain: UACGUAGGUGGUUUUCCCCUGAUAGUGCUAAGGGGGCCUGGAAGUUUGGACUGGGCAGAGCUCAACACAGCGUGGCAAAGUGGCUGUGGCUAGACUGCCUCUCUGGAUUCCUCGUCACUCAGCAGGGCAUCUCUGAGAGAAAUGCC

Variants of: B1
Assay: self-cleavage, relative activity (ratio to wild type); higher = more cleavage; in vitro, sequencing; the parent is a self-cleaving ribozyme

Variant | self-cleavage
G58C | 0.03
U14G U26A | 1.18
A2G A64G | 0.39
U96A A107U | 0.08
U45C C63A | 0.11
A57U U81C | 0.12
A77U G106A | 1.31
A79G C110A | 1.29
U1C A24G | 1.15
U1C A136U | 1.15
U85A U96C | 0.09
C71U A121U | 0.93
A107G A117C | 0.66
G35A A136U | 1.1
U47G A142G | 1.33
U9A U109A | 0.14
U85C A136U | 0.24
U85C A136G | 0.2
U26A C63U | 0.37
G4A A140G | 0.76
U1C U62C | 0.12
C68U | 0.13
U73C G83A | 1.63
A50G U115A | 0.95

Variant | self-cleavage
A92G U143A | 0.14
G21A A140G | 1.3
A6C U96A | 0.17
U14C A65G | 0.12
A92G A124G | 0.04
C90U U115C | 0.06
U23G U143C | 0
G114A U130C | 1.42
A79G U134C | 1.25
A2U U96C | 0.31
U15C C116U | 0.62
U13A A57G | 0.51
G4A A24G | 0.75
A50G A142C | 1.07
U46A U91A | 0.62
U14A A136U | 1.19
A50G C145A | 1.05
A94G U108C | 0.61
G54A A140G | 0.73
U47A U102C | 1.19
U47A U102A | 1.35
A79C A129G | 1.93
A6G A67U | 0.68
U45C G75A | 1.13

Variant | self-cleavage
A30U A69G | 0.4
A59G C95U | 0.14
U12G U20A | 1.08
G55C A129U | 0.09
A141C U143A | 1.79
G8A U112C | 1.03
G58U G137U | 0.03
G11A G70U | 0.07
A67G U104A | 0.36
U73G U134A | 0.88
U13C G127C | 1.47
A6U U14C | 0.92
A24U G33A | 1.07
G33A U109C | 1.05
C90A U96C | 0.04
A121U G127A | 0.76
G58U A59G | 0.06
A57G C68A | 0.06
G35C A59G | 0.19
U13C U108C | 1.37
U52C U132A | 1.88
G54A U96C | 0.04
A50C | 1.34
U87G U115A | 0.24

Variant | self-cleavage
G11A U15A | 0.99
G41A A124U | 1.08
G114A A140U | 1.55
U12C C56A | 0.01
U20A G34A | 0.88
G8A A69C | 0.04
A78C A117G | 2.21
U5C C18G | 0.99
U39A A92G | 0.1
U1C A107G | 0.75
U39C U109C | 1.49
U13A A141G | 1.26
A65G A142G | 0.06
G54C A138G | 1.35
U20C G70A | 0.14
A22U G40U | 0.87
G40A U115A | 1.17
U100C C131G | 2.35
U81C A129G | 1.56
A42G U102C | 1.36
A57U U87A | 0.05
A59U U132C | 0.71
A2U U47C | 0.43
A31U A67U | 0.3

Variant | self-cleavage
G75A U130C | 0.95
U14A U119C | 0.85
A77U A92U | 0.63
U15C G49U | 0.94
U85C A138G | 0.17
U130A U132C | 1.41
U1C U12C | 0.78
G32A A65U | 0.1
G75A U109C | 1.1
C16A U46C | 0.91
C18U C56U | 0.24
A50G U143A | 1.7
C66U A142C | 0.04
A92C A121U | 0.05
U62C A129U | 0.01
G89C A124G | 0.08
U5A A138C | 0.98
U100C G144C | 1.95
G34U A77G | 2.2
U62C U73A | 0.03
G32U | 0.98
G54A A69C | 0.04
G74A U100A | 0.7
G25U U119A | 1.69

Variant | self-cleavage
U62G A77G | 0.07
U45C U134A | 1.6
U45C U134C | 1.47
G7C A142C | 1.1
A24U G83A | 1.07
C17U U143C | 1.03
A2G A50G | 0.39
A64G U104C | 0.59
G72A A78G | 1.14
U134A G135U | 1.21
U14C U85A | 0.08
U12C C116U | 0.77
G125A A129U | 0.46
U45C G122A | 0.81
A22U U39C | 1.2
C116U A124G | 1.11
U23C A94U | 0.48
C103A A138G | 1.6
G49U U109C | 0.95
U45C U85C | 0.17
A42G A121U | 1.4
C18U G60A | 0.01
G34U U73G | 0.99
U20G G48A | 0.43

Variant | self-cleavage
C103U A138G | 1.49
C71U A92G | 0.06
G40A A57U | 0.05
U39A U112C | 1.38
A65U U87A | 0.25
U12G U143A | 0.59
A2G G114A | 0.82
G36A U108A | 1.23
U13C U96C | 0.17
U12A A107U | 1.61
U29A C145U | 0.61
A57U U130C | 0.13
A59G U104A | 0.14
U46A A65G | 0.02
U5C U23G | 1.53
A42C U108C | 0.8
U109A G125A | 1.34
U29C U46C | 1.36
U13C G55U | 0.22
U26C U47C | 1.88
U46C A121G | 1.64
U52C A57G | 0.4
A30G A59U | 0.78
